Reference: patent US20200024330A1

What was measured:
Assay in all cases: cell-based or functional assay
[1] = biological target: HIV-1 92TH021 envelope glycoprotein (Env) on pseudovirus (HIV-1)
[2] = biological target: HIV-1 92UG005 envelope glycoprotein (Env) on pseudovirus (HIV-1)
[3] = biological target: HIV-1 92UG024 envelope glycoprotein (Env) on pseudovirus (HIV-1)
[4] = biological target: HIV-1 CMU02 envelope glycoprotein (Env) on pseudovirus (HIV-1)
[5] = biological target: HIV-1 MGRM-AG-005 envelope glycoprotein (Env) on pseudovirus (HIV-1)
[6] = biological target: HIV-1 MGRM-D-001 envelope glycoprotein (Env) on pseudovirus (HIV-1)
[7] = biological target: HIV-1 MGRM-D-018 envelope glycoprotein (Env) on pseudovirus (HIV-1)
[8] = biological target: aMLV envelope protein on pseudovirus (negative control virus)
[9] = biological target: HIV-1 92BR020 envelope glycoprotein (Env) on pseudovirus (HIV-1)
[10] = biological target: HIV-1 92RW020 envelope glycoprotein (Env) on pseudovirus (HIV-1)
[11] = biological target: HIV-1 Env of isolate 6535.3 (HIV-1)
[12] = biological target: HIV-1 Env of isolate 92BR020 (HIV-1)
[13] = biological target: HIV-1 Env of isolate 92RW008 (clade A), on pseudovirus (HIV-1)
[14] = biological target: HIV-1 Env of isolate 92RW009 (clade A), on pseudovirus (HIV-1)
[15] = biological target: HIV-1 Env of isolate 92TH021 (pseudovirus) (HIV-1)
[16] = biological target: HIV-1 Env of isolate 92UG001 (subtype D), on pseudovirus (HIV-1)
[17] = biological target: HIV-1 Env of isolate 92UG005 (subtype D), on pseudovirus (HIV-1)
[18] = biological target: HIV-1 Env of isolate 92UG024 (subtype D), on pseudovirus (HIV-1)
[19] = biological target: HIV-1 Env of isolate 92UG031 (pseudovirus) (HIV-1)
[20] = biological target: HIV-1 Env of isolate 92UG037 (pseudovirus) (HIV-1)
[21] = biological target: HIV-1 Env of isolate 92UG046 (subtype D), on pseudovirus (HIV-1)
[22] = biological target: HIV-1 Env of isolate 92UG114 (subtype D), on pseudovirus (HIV-1)
[23] = biological target: HIV-1 Env of isolate 92WR020 (pseudovirus) (HIV-1)
[24] = biological target: HIV-1 Env of isolate 92WR021 (pseudovirus) (HIV-1)
[25] = biological target: HIV-1 Env of isolate 92WR024 (pseudovirus) (HIV-1)
[26] = biological target: HIV-1 Env of isolate 92WR026 (pseudovirus) (HIV-1)
[27] = biological target: HIV-1 Env of isolate 93TH305 (HIV-1)
[28] = biological target: HIV-1 Env of isolate 93UG077 (pseudovirus) (HIV-1)
[29] = biological target: HIV-1 Env of isolate 93WR029 (pseudovirus) (HIV-1)
[30] = biological target: HIV-1 Env of isolate 94 KE 105 (pseudovirus) (HIV-1)
[31] = biological target: HIV-1 Env of isolate 94UG103 (pseudovirus) (HIV-1)
[32] = biological target: HIV-1 Env of isolate 98CN006 (subtype CRF08 BC), on pseudovirus (HIV-1)
[33] = biological target: HIV-1 Env of isolate 98CN009 (subtype CRF07_BC), on pseudovirus (HIV-1)
[34] = biological target: HIV-1 Env of isolate APV_13 (HIV-1)
[35] = biological target: HIV-1 Env of isolate APV_17 (HIV-1)
[36] = biological target: HIV-1 Env of isolate APV_6 (HIV-1)
[37] = biological target: HIV-1 Env of isolate CAAN.A2 (HIV-1)
[38] = biological target: HIV-1 Env of isolate CMU02 (pseudovirus) (HIV-1)
[39] = biological target: HIV-1 Env of isolate JRFL (HIV-1)
[40] = biological target: HIV-1 Env of isolate MG RM-A-005 (pseudovirus) (HIV-1)
[41] = biological target: HIV-1 Env of isolate MG RM-A-006 (pseudovirus) (HIV-1)
[42] = biological target: HIV-1 Env of isolate MG RM-A-007 (pseudovirus) (HIV-1)
[43] = biological target: HIV-1 Env of isolate MG RM-A-008 (pseudovirus) (HIV-1)
[44] = biological target: HIV-1 Env of isolate MG RM-A-009 (pseudovirus) (HIV-1)
[45] = biological target: HIV-1 Env of isolate MG RM-A-010 (pseudovirus) (HIV-1)
[46] = biological target: HIV-1 Env of isolate MG RM-A-011 (pseudovirus) (HIV-1)
[47] = biological target: HIV-1 Env of isolate MG RM-A-012 (pseudovirus) (HIV-1)
[48] = biological target: HIV-1 Env of isolate MG RM-A-013 (pseudovirus) (HIV-1)
[49] = biological target: HIV-1 Env of isolate MG RM-A-014 (pseudovirus) (HIV-1)
[50] = biological target: HIV-1 Env of isolate MGRM-AE-001 (pseudovirus) (HIV-1)
[51] = biological target: HIV-1 Env of isolate MGRM-AE-002 (pseudovirus) (HIV-1)
[52] = biological target: HIV-1 Env of isolate MGRM-AE-003 (pseudovirus) (HIV-1)
[53] = biological target: HIV-1 Env of isolate MGRM-AE-004 (pseudovirus) (HIV-1)
[54] = biological target: HIV-1 Env of isolate MGRM-AE-005 (pseudovirus) (HIV-1)
[55] = biological target: HIV-1 Env of isolate MGRM-AE-006 (pseudovirus) (HIV-1)
[56] = biological target: HIV-1 Env of isolate MGRM-Chronic-B-001 (HIV-1)
[57] = biological target: HIV-1 Env of isolate MGRM-Chronic-B-002 (HIV-1)
[58] = biological target: HIV-1 Env of isolate MGRM-Chronic-B-003 (HIV-1)
[59] = biological target: HIV-1 Env of isolate MGRM-Chronic-B-004 (HIV-1)
[60] = biological target: HIV-1 Env of isolate MGRM-Chronic-B-008 (HIV-1)
[61] = biological target: HIV-1 Env of isolate MGRM-D-001 (subtype D), on pseudovirus (HIV-1)
[62] = biological target: HIV-1 Env of isolate MGRM-D-002 (subtype D), on pseudovirus (HIV-1)
[63] = biological target: HIV-1 Env of isolate MGRM-D-003 (subtype D), on pseudovirus (HIV-1)
[64] = biological target: HIV-1 Env of isolate MGRM-D-004 (subtype D), on pseudovirus (HIV-1)
[65] = biological target: HIV-1 Env of isolate MGRM-D-005 (subtype D), on pseudovirus (HIV-1)
[66] = biological target: HIV-1 Env of isolate MGRM-D-008 (subtype D), on pseudovirus (HIV-1)
[67] = biological target: HIV-1 Env of isolate VLGCA1 (pseudovirus) (HIV-1)

Chain of 4993_K13 (PGT-141) (antibody) (VH): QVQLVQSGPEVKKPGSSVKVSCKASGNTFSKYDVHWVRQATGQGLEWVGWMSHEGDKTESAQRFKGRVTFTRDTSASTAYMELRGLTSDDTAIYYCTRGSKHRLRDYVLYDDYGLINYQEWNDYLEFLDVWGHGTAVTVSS
Chain of 4993_K13 (PGT-141) (antibody) (VL): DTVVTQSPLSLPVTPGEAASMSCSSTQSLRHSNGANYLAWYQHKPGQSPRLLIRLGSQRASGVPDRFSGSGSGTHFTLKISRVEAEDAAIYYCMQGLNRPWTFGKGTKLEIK

PGT-122 monoclonal antibody
IC50, pseudovirus neutralization [1]: > 10 µg/mL
IC50, pseudovirus neutralization [2]: > 10 µg/mL
IC50, pseudovirus neutralization [3]: > 10 µg/mL
IC50, pseudovirus neutralization [4]: > 10 µg/mL
IC50, pseudovirus neutralization [5]: > 10 µg/mL
IC50, pseudovirus neutralization [6]: 0.867 µg/mL
IC50, pseudovirus neutralization [7]: 0.0115 µg/mL
IC50, pseudovirus neutralization [8]: > 10 µg/mL

PGT-121 monoclonal antibody
IC50, pseudovirus neutralization [1]: > 10 µg/mL
IC50, pseudovirus neutralization [2]: > 10 µg/mL
IC50, pseudovirus neutralization [3]: > 10 µg/mL
IC50, pseudovirus neutralization [4]: > 10 µg/mL
IC50, pseudovirus neutralization [8]: > 10 µg/mL

4993_K13 (PGT-141) (antibody)
IC50 (ug/ml), neutralizing activity [9]: > 10 µg/mL
IC50 (ug/ml), neutralizing activity [10]: > 10 µg/mL
IC50 [11]: > 50 µg/mL
IC50 [12]: 20.3 µg/mL
IC50, single-round pseudovirus neutralization [13]: 0.579 µg/mL
IC50, single-round pseudovirus neutralization [14]: 0.022 µg/mL
IC50 (µg/mL), pseudovirus neutralization [15]: 0.001 µg/mL
IC50, pseudovirus neutralization [16]: > 50 µg/mL
IC50, pseudovirus neutralization [17]: > 5 µg/mL
IC50, pseudovirus neutralization [18]: > 50 µg/mL
IC50 (µg/mL), pseudovirus neutralization [19]: 0.093 µg/mL
IC50 (µg/mL), pseudovirus neutralization [20]: 1.28 µg/mL
IC50, pseudovirus neutralization [21]: > 50 µg/mL
IC50, pseudovirus neutralization [22]: > 50 µg/mL
IC50 (µg/mL), pseudovirus neutralization [23]: > 50 µg/mL
IC50 (µg/mL), pseudovirus neutralization [24]: > 50 µg/mL
IC50 (µg/mL), pseudovirus neutralization [25]: 0.175 µg/mL
IC50 (µg/mL), pseudovirus neutralization [26]: 1.78 µg/mL
IC50 [27]: > 50 µg/mL
IC50 (µg/mL), pseudovirus neutralization [28]: > 50 µg/mL
IC50 (µg/mL), pseudovirus neutralization [29]: 0.019 µg/mL
IC50 (µg/mL), pseudovirus neutralization [30]: 0.204 µg/mL
IC50 (µg/mL), pseudovirus neutralization [31]: > 50 µg/mL
IC50, pseudovirus neutralization [32]: > 50 µg/mL
IC50, pseudovirus neutralization [33]: 1.28 µg/mL
IC50 [34]: > 50 µg/mL
IC50 [35]: 0.59 µg/mL
IC50 [36]: 14.2 µg/mL
IC50 [37]: > 50 µg/mL
IC50 (µg/mL), pseudovirus neutralization [38]: > 50 µg/mL
IC50 [39]: > 50 µg/mL
IC50 (µg/mL), pseudovirus neutralization [40]: 11.1 µg/mL
IC50 (µg/mL), pseudovirus neutralization [41]: > 50 µg/mL
IC50 (µg/mL), pseudovirus neutralization [42]: > 50 µg/mL
IC50 (µg/mL), pseudovirus neutralization [43]: > 50 µg/mL
IC50 (µg/mL), pseudovirus neutralization [44]: 0.029 µg/mL
IC50 (µg/mL), pseudovirus neutralization [45]: 0.022 µg/mL
IC50 (µg/mL), pseudovirus neutralization [46]: > 50 µg/mL
IC50 (µg/mL), pseudovirus neutralization [47]: > 50 µg/mL
IC50 (µg/mL), pseudovirus neutralization [48]: 9.86 µg/mL
IC50 (µg/mL), pseudovirus neutralization [49]: 0.628 µg/mL
IC50 (µg/mL), pseudovirus neutralization [50]: > 50 µg/mL
IC50 (µg/mL), pseudovirus neutralization [51]: > 50 µg/mL
IC50 (µg/mL), pseudovirus neutralization [52]: > 50 µg/mL
IC50 (µg/mL), pseudovirus neutralization [53]: > 50 µg/mL
IC50 (µg/mL), pseudovirus neutralization [54]: > 50 µg/mL
IC50 (µg/mL), pseudovirus neutralization [55]: > 50 µg/mL
IC50 [56]: > 50 µg/mL
IC50 [57]: > 50 µg/mL
IC50 [58]: 0.4 µg/mL
IC50 [59]: 0.586 µg/mL
IC50 [60]: > 50 µg/mL
IC50, pseudovirus neutralization [61]: > 50 µg/mL
IC50, pseudovirus neutralization [62]: > 50 µg/mL
IC50, pseudovirus neutralization [63]: > 50 µg/mL
IC50, pseudovirus neutralization [64]: > 50 µg/mL
IC50, pseudovirus neutralization [65]: 5.15 µg/mL
IC50, pseudovirus neutralization [66]: 0.371 µg/mL
IC50 (µg/mL), pseudovirus neutralization [67]: 2.07 µg/mL
